The values that follow come from article PMC2783235.

Test [1] concerns the target T279C (single-Cys mutant of FT-HT-Xa) (S. cerevisiae) (UniProt D6VTK4). Nature of the test: cross-linking.
Test [2] shares this target. Nature of the test: SDS-PAGE and western blot of membranes.
Test [3] has the same target. The test is described as follows: cross-linking. This is another data set of the same source.
For test [4] the target is unchanged. The test is described as follows: cross-linking. This is another data set of the same source.
Test [5] concerns the target V68C (single-Cys mutant of FT-HT-Xa) (S. cerevisiae) (UniProt D6VTK4). Nature of the test: cross-linking.
The target is the same in test [6]. Nature of the test: SDS-PAGE and western blot of membranes. For orientation: In western blotting, separated proteins are transferred to a membrane and probed.
Test [7] has the same target. Nature of the test: cross-linking. This is another data set of the same source.
Test [8] shares this target. The test is described as follows: cross-linking. This is another data set of the same source.
The target of test [9] is T278C (single-Cys mutant of FT-HT-Xa) (S. cerevisiae) (UniProt D6VTK4). Nature of the test: cross-linking.
Test [10] shares this target. Nature of the test: SDS-PAGE and western blot of membranes.
For test [11] the target is unchanged. The test is described as follows: cross-linking. This is another data set of the same source.
For test [12] the target is unchanged. Nature of the test: cross-linking. The source holds these as a separate data set.
In test [13] the target is L66C (single-Cys mutant of FT-HT-Xa) (S. cerevisiae) (UniProt D6VTK4). The test is described as follows: cross-linking.
Test [14] shares this target. Nature of the test: SDS-PAGE and western blot of membranes.
The target is the same in test [15]. Nature of the test: cross-linking. The source holds these as a separate data set.
For test [16] the target is unchanged. Nature of the test: cross-linking. This is another data set of the same source.
Test [17] concerns the target I67C (single-Cys mutant of FT-HT-Xa) (S. cerevisiae) (UniProt D6VTK4). The test is described as follows: cross-linking.
For test [18] the target is unchanged. The test is described as follows: SDS-PAGE and western blot of membranes.
Test [19] shares this target. Nature of the test: cross-linking. This is another data set of the same source.
Test [20] has the same target. Nature of the test: cross-linking. This is another data set of the same source.
Test [21] deals with M69C (single-Cys mutant of FT-HT-Xa) (S. cerevisiae) (UniProt D6VTK4). Nature of the test: cross-linking.
For test [22] the target is unchanged. Nature of the test: SDS-PAGE and western blot of membranes.
The target is the same in test [23]. The test is described as follows: cross-linking. The source holds these as a separate data set.
The target is the same in test [24]. Nature of the test: cross-linking. This is another data set of the same source.
Test [25] concerns the target L283C (single-Cys mutant of FT-HT-Xa) (S. cerevisiae) (UniProt D6VTK4). Nature of the test: radioligand binding.
Test [26] addresses L66C (single-Cys mutant of FT-HT-Xa) (S. cerevisiae) (UniProt D6VTK4). Nature of the test: radioligand binding.
Test [27] concerns the target V68C (single-Cys mutant of FT-HT-Xa) (S. cerevisiae) (UniProt D6VTK4). Nature of the test: radioligand binding.
Test [28] has as its target L291C (single-Cys mutant of FT-HT-Xa) (S. cerevisiae) (UniProt D6VTK4). The test is described as follows: radioligand binding.
Test [29] deals with L284C (single-Cys mutant of FT-HT-Xa) (S. cerevisiae) (UniProt D6VTK4). Nature of the test: radioligand binding.
The target in test [30] is T65C (single-Cys mutant of FT-HT-Xa) (S. cerevisiae) (UniProt D6VTK4). Nature of the test: radioligand binding.
Test [31] addresses V286C (single-Cys mutant of FT-HT-Xa) (S. cerevisiae) (UniProt D6VTK4). Nature of the test: radioligand binding.
Test [32] deals with L64C (single-Cys mutant of FT-HT-Xa) (S. cerevisiae) (UniProt D6VTK4). Nature of the test: radioligand binding.
Test [33] has as its target S293C (single-Cys mutant of FT-HT-Xa) (S. cerevisiae) (UniProt D6VTK4). Nature of the test: radioligand binding.
Test [34] has as its target W295C (single-Cys mutant of FT-HT-Xa) (S. cerevisiae) (UniProt D6VTK4). The test is described as follows: radioligand binding.
Test [35] deals with S292C (single-Cys mutant of FT-HT-Xa) (S. cerevisiae) (UniProt D6VTK4). The test is described as follows: radioligand binding.
Test [36] has as its target S288C (single-Cys mutant of FT-HT-Xa) (S. cerevisiae) (UniProt D6VTK4). The test is described as follows: radioligand binding.
Test [37] concerns the target L287C (single-Cys mutant of FT-HT-Xa) (S. cerevisiae) (UniProt D6VTK4). Nature of the test: radioligand binding.
The target of test [38] is I67C (single-Cys mutant of FT-HT-Xa) (S. cerevisiae) (UniProt D6VTK4). The test is described as follows: radioligand binding.
In test [39] the target is L289C (single-Cys mutant of FT-HT-Xa) (S. cerevisiae) (UniProt D6VTK4). Nature of the test: radioligand binding.
Test [40] has as its target A296C (single-Cys mutant of FT-HT-Xa) (S. cerevisiae) (UniProt D6VTK4). The test is described as follows: radioligand binding.

Turning to “T279C (single-Cys mutant of FT-HT-Xa) (from UniProt D6VTK4 1-431) (receptor)”, the percent dimer in test [1] was 10.9%; in test [2] it was 17.3%; in [3] it was 10.1%; in [4], 15.8%.
As to “V68C (single-Cys mutant of FT-HT-Xa) (from UniProt D6VTK4 1-431) (receptor)”, the percent dimer in test [5] was found to be 98.8%; in test [6], 28.5%; in [7] it was 99.2%; in test [8], 98.3%.
As for “T278C (single-Cys mutant of FT-HT-Xa) (from UniProt D6VTK4 1-431) (receptor)”, the percent dimer in [9] was 12.4%; in test [10], 15.1%; in test [11], 65.8%; in test [12] it was 12.5%.
Turning to “L66C (single-Cys mutant of FT-HT-Xa) (from UniProt D6VTK4 1-431) (receptor)”, the percent dimer in test [13] was 11.9%; in test [14], 12.3%; in test [15] it was 11.9%; in test [16], 13.2%.
Take “I67C (single-Cys mutant of FT-HT-Xa) (from UniProt D6VTK4 1-431) (receptor)”: the percent dimer was found to be 18% in test [17], 19.3% in [18], 17% in test [19] and 17.4% in test [20].
Turning to “M69C (single-Cys mutant of FT-HT-Xa) (from UniProt D6VTK4 1-431) (receptor)”, the percent dimer is 28.9% in [21], 17.7% in test [22], 14.2% in test [23] and 17% in [24].
Turning to “Tritiated α-factor ([3H]α-factor) (peptide)”, the Kd relative to FT-HT-Xa (relative to FT-HT-Xa) in [25] was 4.7; in test [26], 0.5; in [27] it was 1.1; in test [28] it was 1.7; in test [29], 1.1; in test [30] it was 1.5. Besides, the Kd relative to FT-HT-Xa (relative to FT-HT-Xa) stood at 1.9 in [31]; 2.5 in [32]; 2.5 in [33]; 1.3 in test [34]; 0.2 in test [35]; 4.1 in test [36]. The Kd relative to FT-HT-Xa (relative to FT-HT-Xa) stood at 1.1 in test [37], 2.2 in test [38], 2.1 in test [39] and 0.4 in test [40].
